In the supplement of paper PMC10065799, “High-throughput profiling of sequence recognition by tyrosine kinases and SH2 domains using bacterial peptide display” (eLife, 2023):

Legend:
Hck = Hck (UniProt P08631); test: phosphorylation enrichment, bacterial display (enrichment ratio); higher = better substrate or ligand; peptides without Tyr show the background
Fer (mouse) = test: as above
c-Abl (mouse) = test: as above
EPHB1 = EPHB1 (UniProt P54762); test: as above
Fyn = Fyn (UniProt P06241); test: as above
Fes = Fes (UniProt P07332); test: as above
EPHB2 = EPHB2 (UniProt P29323); test: as above
Jak2 = Jak2 (UniProt O60674); test: as above
AncSZ = test: as above
c-Src = test: as above
FGFR3 = FGFR3 (UniProt P22607); test: as above
FGFR1 = FGFR1 (UniProt P11362); test: as above
MERTK = MERTK (UniProt Q12866); test: as above
c-Src SH2 = test: SH2 binding enrichment of the phosphorylated peptide, bacterial display (enrichment ratio); higher = better substrate or ligand; peptides without Tyr show the background
Grb2 SH2 = Grb2 SH2 (UniProt P62993); test: as above
SHP2-C SH2 = test: as above
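For SH2 binding enrichment of the phosphorylated peptide, bacterial display in this document: peptide library displayed on the E. coli surface as eCPX fusions, selected cells deep-sequenced, score is each peptide's frequency after selection divided by its frequency in the input.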
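For phosphorylation enrichment, bacterial display in this document: 11-residue human phosphosite peptides and single-mutation variants displayed on the E. coli surface, counted by deep sequencing, each peptide's frequency after selection divided by its frequency in the unselected input library; frequency after pTyr selection over input frequency; kinase dosed for 20-30% of maximal phosphorylation in three min.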

Sequence of Hck (P08631 whole entry, looked up): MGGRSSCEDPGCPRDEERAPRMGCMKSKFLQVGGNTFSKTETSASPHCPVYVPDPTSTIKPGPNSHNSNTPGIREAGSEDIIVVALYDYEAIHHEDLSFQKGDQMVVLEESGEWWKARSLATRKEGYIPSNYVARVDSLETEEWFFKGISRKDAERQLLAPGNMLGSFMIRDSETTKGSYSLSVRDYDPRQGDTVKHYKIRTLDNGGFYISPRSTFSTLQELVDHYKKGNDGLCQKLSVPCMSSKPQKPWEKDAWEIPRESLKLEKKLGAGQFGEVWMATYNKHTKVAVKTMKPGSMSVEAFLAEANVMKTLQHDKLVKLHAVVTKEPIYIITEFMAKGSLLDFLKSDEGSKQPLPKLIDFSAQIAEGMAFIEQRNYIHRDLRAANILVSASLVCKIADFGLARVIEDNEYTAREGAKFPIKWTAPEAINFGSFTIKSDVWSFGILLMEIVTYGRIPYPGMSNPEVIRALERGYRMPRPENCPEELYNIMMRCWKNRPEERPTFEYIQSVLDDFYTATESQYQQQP
Sequence of Fyn (P06241 whole entry, looked up): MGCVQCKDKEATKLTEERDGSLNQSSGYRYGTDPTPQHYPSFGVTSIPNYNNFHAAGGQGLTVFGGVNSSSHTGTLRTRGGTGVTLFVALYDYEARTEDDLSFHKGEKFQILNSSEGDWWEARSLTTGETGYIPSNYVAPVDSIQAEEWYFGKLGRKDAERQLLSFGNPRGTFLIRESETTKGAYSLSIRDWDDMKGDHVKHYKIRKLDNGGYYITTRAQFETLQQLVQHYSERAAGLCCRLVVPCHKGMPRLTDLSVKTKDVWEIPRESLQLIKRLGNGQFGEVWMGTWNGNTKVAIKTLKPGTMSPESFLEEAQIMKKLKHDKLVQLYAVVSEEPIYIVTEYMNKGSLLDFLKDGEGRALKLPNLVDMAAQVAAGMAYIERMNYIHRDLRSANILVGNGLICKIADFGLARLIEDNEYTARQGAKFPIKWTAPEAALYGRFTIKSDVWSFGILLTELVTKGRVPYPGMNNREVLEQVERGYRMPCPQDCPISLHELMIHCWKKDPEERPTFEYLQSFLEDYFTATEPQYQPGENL
Sequence of MERTK (Q12866 whole entry, looked up): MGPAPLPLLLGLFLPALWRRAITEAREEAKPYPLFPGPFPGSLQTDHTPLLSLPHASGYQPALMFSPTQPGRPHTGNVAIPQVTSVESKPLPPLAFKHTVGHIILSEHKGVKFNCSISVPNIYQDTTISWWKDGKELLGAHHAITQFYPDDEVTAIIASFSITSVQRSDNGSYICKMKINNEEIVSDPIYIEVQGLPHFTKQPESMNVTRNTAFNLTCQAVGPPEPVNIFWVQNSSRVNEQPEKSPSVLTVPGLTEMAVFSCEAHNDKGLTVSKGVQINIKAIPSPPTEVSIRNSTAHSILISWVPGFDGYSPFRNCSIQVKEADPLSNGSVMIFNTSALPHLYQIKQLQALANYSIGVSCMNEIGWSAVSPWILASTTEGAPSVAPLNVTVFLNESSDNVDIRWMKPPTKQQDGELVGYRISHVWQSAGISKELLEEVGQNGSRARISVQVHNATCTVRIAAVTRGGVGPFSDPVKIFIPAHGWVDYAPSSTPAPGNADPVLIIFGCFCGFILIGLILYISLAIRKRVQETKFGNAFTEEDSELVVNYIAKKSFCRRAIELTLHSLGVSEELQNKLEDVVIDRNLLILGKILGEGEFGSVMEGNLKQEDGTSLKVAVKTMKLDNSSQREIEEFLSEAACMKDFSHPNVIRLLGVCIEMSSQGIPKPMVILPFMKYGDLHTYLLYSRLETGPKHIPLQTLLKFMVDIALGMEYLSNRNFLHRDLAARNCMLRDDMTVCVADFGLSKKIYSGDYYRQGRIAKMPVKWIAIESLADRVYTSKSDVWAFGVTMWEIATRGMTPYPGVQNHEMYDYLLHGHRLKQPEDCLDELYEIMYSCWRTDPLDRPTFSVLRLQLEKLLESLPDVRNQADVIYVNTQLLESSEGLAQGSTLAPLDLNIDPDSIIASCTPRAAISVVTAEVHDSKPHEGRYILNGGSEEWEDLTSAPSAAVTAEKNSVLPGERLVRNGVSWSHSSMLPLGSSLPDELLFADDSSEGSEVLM
Sequence of FGFR1 (P11362 whole entry, looked up): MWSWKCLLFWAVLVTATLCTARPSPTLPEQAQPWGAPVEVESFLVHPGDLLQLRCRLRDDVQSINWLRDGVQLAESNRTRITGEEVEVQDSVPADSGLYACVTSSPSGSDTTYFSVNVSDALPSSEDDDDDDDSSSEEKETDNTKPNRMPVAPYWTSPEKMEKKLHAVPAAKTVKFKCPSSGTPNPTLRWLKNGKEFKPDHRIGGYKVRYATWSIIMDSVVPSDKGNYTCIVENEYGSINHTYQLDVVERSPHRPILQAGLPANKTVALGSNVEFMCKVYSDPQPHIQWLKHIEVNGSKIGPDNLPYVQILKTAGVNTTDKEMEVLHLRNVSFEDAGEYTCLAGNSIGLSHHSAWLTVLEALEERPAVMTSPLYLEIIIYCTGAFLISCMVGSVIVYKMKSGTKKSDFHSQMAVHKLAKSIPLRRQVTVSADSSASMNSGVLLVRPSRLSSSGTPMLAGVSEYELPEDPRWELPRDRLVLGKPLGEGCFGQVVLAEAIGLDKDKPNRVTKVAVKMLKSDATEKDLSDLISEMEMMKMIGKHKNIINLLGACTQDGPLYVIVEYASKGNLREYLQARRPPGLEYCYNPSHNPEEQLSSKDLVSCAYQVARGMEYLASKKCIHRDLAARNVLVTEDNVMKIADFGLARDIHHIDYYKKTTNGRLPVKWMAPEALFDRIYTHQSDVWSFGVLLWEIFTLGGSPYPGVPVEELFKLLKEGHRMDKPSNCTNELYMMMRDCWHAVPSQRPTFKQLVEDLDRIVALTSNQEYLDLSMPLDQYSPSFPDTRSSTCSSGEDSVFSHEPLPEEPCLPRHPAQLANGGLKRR
Sequence of EPHB2 (P29323 whole entry, looked up): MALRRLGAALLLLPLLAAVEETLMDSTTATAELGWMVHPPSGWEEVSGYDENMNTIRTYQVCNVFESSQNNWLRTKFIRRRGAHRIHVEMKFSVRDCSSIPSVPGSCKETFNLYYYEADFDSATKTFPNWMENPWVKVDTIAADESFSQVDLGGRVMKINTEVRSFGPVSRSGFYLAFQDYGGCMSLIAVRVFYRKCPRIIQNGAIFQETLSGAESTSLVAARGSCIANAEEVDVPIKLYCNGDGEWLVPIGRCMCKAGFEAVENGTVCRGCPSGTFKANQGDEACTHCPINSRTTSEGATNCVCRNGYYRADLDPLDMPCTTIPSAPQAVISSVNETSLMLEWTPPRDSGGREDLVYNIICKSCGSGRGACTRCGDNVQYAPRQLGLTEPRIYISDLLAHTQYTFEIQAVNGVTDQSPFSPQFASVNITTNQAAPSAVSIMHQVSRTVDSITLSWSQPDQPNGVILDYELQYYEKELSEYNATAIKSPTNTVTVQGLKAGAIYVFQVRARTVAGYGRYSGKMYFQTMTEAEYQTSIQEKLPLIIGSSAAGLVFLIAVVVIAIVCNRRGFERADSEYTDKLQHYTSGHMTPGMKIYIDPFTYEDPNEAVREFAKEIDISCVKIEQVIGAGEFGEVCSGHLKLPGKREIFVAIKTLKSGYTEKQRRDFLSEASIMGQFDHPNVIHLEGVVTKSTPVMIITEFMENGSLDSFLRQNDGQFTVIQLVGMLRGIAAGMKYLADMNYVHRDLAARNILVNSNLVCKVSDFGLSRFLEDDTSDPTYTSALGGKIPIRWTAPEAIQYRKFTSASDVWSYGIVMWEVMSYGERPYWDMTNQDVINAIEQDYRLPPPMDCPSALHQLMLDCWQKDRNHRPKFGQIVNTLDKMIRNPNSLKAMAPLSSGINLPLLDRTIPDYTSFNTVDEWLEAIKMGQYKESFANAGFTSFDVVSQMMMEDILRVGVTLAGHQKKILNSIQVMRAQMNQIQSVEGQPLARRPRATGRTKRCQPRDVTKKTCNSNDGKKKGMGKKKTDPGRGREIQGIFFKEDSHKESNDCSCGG
Sequence of EPHB1 (P54762 whole entry, looked up): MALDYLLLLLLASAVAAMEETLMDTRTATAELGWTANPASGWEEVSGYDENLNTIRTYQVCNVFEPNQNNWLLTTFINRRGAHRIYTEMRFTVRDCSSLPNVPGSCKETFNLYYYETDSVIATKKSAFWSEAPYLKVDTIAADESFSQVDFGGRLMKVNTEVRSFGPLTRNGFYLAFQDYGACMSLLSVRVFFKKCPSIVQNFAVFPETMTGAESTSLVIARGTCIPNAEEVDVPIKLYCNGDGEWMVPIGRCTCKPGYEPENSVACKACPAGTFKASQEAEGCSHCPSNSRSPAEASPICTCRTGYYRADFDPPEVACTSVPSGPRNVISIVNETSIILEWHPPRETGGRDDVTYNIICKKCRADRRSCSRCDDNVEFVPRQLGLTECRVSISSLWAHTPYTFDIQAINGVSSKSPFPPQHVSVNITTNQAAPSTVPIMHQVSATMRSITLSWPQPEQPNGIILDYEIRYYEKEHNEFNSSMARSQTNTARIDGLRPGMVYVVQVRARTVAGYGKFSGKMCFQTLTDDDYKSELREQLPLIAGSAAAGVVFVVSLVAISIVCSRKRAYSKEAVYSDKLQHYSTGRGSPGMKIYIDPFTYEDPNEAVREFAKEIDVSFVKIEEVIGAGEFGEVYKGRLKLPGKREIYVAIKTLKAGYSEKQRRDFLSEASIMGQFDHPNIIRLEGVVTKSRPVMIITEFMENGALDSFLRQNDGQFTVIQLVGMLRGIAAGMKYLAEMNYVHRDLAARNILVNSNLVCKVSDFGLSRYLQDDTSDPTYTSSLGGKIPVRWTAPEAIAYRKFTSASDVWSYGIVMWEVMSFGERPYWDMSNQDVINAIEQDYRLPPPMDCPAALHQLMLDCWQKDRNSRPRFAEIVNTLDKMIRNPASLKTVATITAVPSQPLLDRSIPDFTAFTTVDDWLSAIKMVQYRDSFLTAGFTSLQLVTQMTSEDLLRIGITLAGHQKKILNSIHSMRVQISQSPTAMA

Row | SH2 binding enrichment (c-Src SH2) | SH2 binding enrichment (Grb2 SH2) | SH2 binding enrichment (SHP2-C SH2) | Sequence | phosphorylation enrichment (Hck) | phosphorylation enrichment (Fer (mouse)) | phosphorylation enrichment (c-Abl (mouse)) | phosphorylation enrichment (EPHB1) | phosphorylation enrichment (Fyn) | phosphorylation enrichment (Fes) | phosphorylation enrichment (EPHB2) | phosphorylation enrichment (Jak2) | phosphorylation enrichment (AncSZ) | phosphorylation enrichment (c-Src) | phosphorylation enrichment (FGFR3) | phosphorylation enrichment (FGFR1) | phosphorylation enrichment (MERTK)
1 | 0.581 | 0.82 | 0.722 | WFKKFYDANYD [MAPRE2_Y158] | 0.423 | 0.398 | 0.774 | 0.477 | 0.398 | 1.03 | 0.529 | 0.899 | 1.18 | 0.364 | 0.552 | 0.43 | 0.399
2 | 0.59 | 0.957 | 0.68 | VGQRPYRPLPE [REEP3_Y170_Q171R] | 0.4 | 0.482 | 0.683 | 0.391 | 0.492 | 0.637 | 0.557 | 0.67 | 0.584 | 0.471 | 0.519 | 0.482 | 0.473
3 | 0.59 | 1.03 | 0.7 | ELELLYLDRNS [NYX_Y284] | 0.551 | 0.408 | 0.573 | 0.518 | 0.494 | 0.904 | 0.519 | 0.761 | 0.934 | 0.515 | 0.634 | 0.493 | 0.347
4 | 0.531 | 0.662 | 0.824 | GQSKGYRPKLY [SIPA1L3_Y1376] | 0.4 | 0.411 | 0.329 | 0.316 | 0.45 | 0.489 | 0.393 | 0.416 | 0.43 | 0.387 | 0.454 | 0.357 | 0.431
5 | 1.22 | 0.893 | 0.73 | TEAEPYYCSLR [NPHS1_Y1138_R1140C] | 4.2 | 1.8 | 1.18 | 1.5 | 4.22 | 1.5 | 1.43 | 1.4 | 1.81 | 3.96 | 1.47 | 1.49 | 2.78
6 | 0.542 | 0.951 | 0.739 | EDKFMYSEFPQ [PTEN_Y240_F241S] | 2.07 | 0.734 | 1.03 | 0.771 | 1.25 | 1.21 | 1.05 | 1.14 | 1.51 | 2.91 | 1.45 | 1.49 | 2.02
7 | 1.07 | 1.01 | 1.33 | RSPLRYISILT [OR51B6_Y130_T131I] | 0.515 | 0.606 | 0.419 | 0.446 | 0.409 | 0.8 | 0.473 | 0.475 | 0.724 | 0.322 | 0.763 | 0.676 | 0.376
8 | 0.523 | 0.774 | 0.816 | SSVPDYLAAVD [GLB1_Y154_D151V] | 0.517 | 0.568 | 0.801 | 0.631 | 0.582 | 1.19 | 0.683 | 1.11 | 1.63 | 0.381 | 1.17 | 0.534 | 0.463
9 | 1.37 | 0.699 | 0.543 | PPPPAYDDMAQ [TNK2_Y635_V638M] | 0.647 | 0.551 | 0.597 | 0.441 | 0.544 | 1.04 | 0.632 | 1.14 | 1.25 | 0.526 | 0.762 | 0.492 | 0.675
10 | 0.529 | 0.888 | 0.479 | AAVDTVCRHNF [HLA-DRB1_Y107_Y107V_YF] | 0.429 | 0.54 | 0.937 | 0.521 | 0.398 | 1.29 | 0.577 | 1.15 | 0.765 | 0.491 | 0.533 | 0.499 | 0.488
11 | 0.584 | 1.04 | 0.772 | HELYVYKSDEN [DOCK3_Y548_C550S] | 0.835 | 0.879 | 1.19 | 1.28 | 0.849 | 2.14 | 0.912 | 1.75 | 1.7 | 0.917 | 1.32 | 0.684 | 0.487
12 | 0.743 | 1.53 | 1.1 | EMFNPYFGLFE [NEDD4L_Y679_YF] | 6.01 | 2.66 | 1.14 | 2.32 | 7.38 | 1.21 | 1.88 | 8.21 | 1.52 | 7.31 | 1.68 | 1.94 | 3.52

Second part, the sequence before the results:

Row | Sequence | SH2 binding enrichment (c-Src SH2) | SH2 binding enrichment (Grb2 SH2) | SH2 binding enrichment (SHP2-C SH2) | phosphorylation enrichment (Hck) | phosphorylation enrichment (Fer (mouse)) | phosphorylation enrichment (c-Abl (mouse)) | phosphorylation enrichment (EPHB1) | phosphorylation enrichment (Fyn) | phosphorylation enrichment (Fes) | phosphorylation enrichment (EPHB2) | phosphorylation enrichment (Jak2) | phosphorylation enrichment (AncSZ) | phosphorylation enrichment (c-Src) | phosphorylation enrichment (FGFR3) | phosphorylation enrichment (FGFR1) | phosphorylation enrichment (MERTK)
13 | GNLLIYTEFGK [HGD_Y166] | 0.471 | 0.687 | 0.668 | 4.65 | 0.54 | 3.12 | 1.81 | 7.36 | 1.28 | 1.13 | 1.14 | 1.28 | 5.93 | 0.731 | 0.56 | 4.24
14 | KPLMPCMRYSR [SMARCE1_Y73_Y73C] | 0.485 | 0.808 | 0.558 | 0.517 | 0.452 | 0.781 | 0.404 | 0.458 | 0.791 | 0.535 | 0.756 | 0.821 | 0.444 | 0.476 | 0.407 | 0.538
15 | NDHHFYLEGTL [ALDOB_Y223_V222F] | 0.67 | 0.787 | 0.745 | 0.43 | 0.498 | 0.646 | 0.497 | 0.398 | 1.19 | 0.547 | 0.964 | 0.939 | 0.392 | 0.696 | 0.489 | 0.409
16 | YCRIMYDIFPF [INTS13_Y67] | 1.64 | 1.01 | 1.12 | 3.78 | 2.06 | 1.7 | 6.02 | 2.55 | 1.48 | 5.07 | 1.51 | 1.85 | 2.98 | 2.89 | 3.47 | 4.92
17 | EFGFRYELVQY [UGGT2_Y1289_Y1285F] | 1.39 | 0.566 | 0.501 | 0.429 | 0.611 | 0.627 | 0.573 | 0.329 | 1.14 | 0.507 | 1.05 | 1.11 | 0.393 | 0.617 | 0.512 | 0.338
18 | LTDLRYKVSGP | 0.407 | 1.04 | 0.82 | 0.594 | 0.588 | 0.684 | 0.518 | 0.537 | 1.11 | 0.957 | 0.687 | 0.644 | 0.255 | 1.13 | 0.43 | 0.464
19 | QMRLKYSQSDL [SMC1A_Y714] | 0.597 | 0.871 | 0.703 | 0.369 | 0.365 | 0.632 | 0.335 | 0.251 | 0.863 | 0.476 | 0.611 | 0.704 | 0.481 | 0.453 | 0.437 | 0.296
20 | KFLENYFDLKK [MMP3_Y41_YF] | 0.604 | 0.886 | 0.709 | 0.543 | 0.467 | 0.816 | 1.94 | 0.448 | 1.27 | 0.751 | 1.26 | 1.06 | 0.499 | 1.75 | 2.51 | 0.446
21 | PSAEGYQDVRD [ABLIM1_Y439] | 3.8 | 0.812 | 0.621 | 0.545 | 0.634 | 0.688 | 0.656 | 0.689 | 1.08 | 0.649 | 0.873 | 1.15 | 0.492 | 0.699 | 0.571 | 0.348
22 | VTRANYFIRDE [GNAS_Y339_K338N] | 0.434 | 0.984 | 0.8 | 0.388 | 0.45 | 0.712 | 0.541 | 0.474 | 0.736 | 0.449 | 0.845 | 0.705 | 0.494 | 0.621 | 0.412 | 0.45
23 | NVADHYGVFKP [ATP6V0D2_Y271_YF] | 0.717 | 1.06 | 0.96 | 3.18 | 0.455 | 0.538 | 0.3 | 4.49 | 0.691 | 0.441 | 0.404 | 0.557 | 4.14 | 0.408 | 0.443 | 0.435
24 | ITVCDYTNPCT [MYD88_Y276] | 0.701 | 0.968 | 0.603 | 0.415 | 0.395 | 0.651 | 0.583 | 0.401 | 1.02 | 0.691 | 1.11 | 1.66 | 1.26 | 0.719 | 0.521 | 0.426
25 | TDGIAYEFRVI | 0.47 | 0.753 | 0.642 | 0.655 | 0.843 | 0.854 | 0.659 | 0.514 | 1.34 | 0.603 | 1.32 | 1.46 | 0.527 | 0.852 | 0.507 | 0.495
26 | IKELTYQTEED [MYH7_Y1852] | 0.52 | 0.879 | 0.832 | 0.604 | 0.635 | 0.753 | 0.591 | 0.579 | 1.33 | 0.612 | 1.1 | 1.27 | 0.467 | 0.773 | 0.54 | 0.441
27 | SSEFHCVGGFF [CTSC_Y347_Y347C_YF] | 0.373 | 0.883 | 0.64 | 0.499 | 0.521 | 0.735 | 0.564 | 0.44 | 1.05 | 0.5 | 0.858 | 0.997 | 0.458 | 0.619 | 0.466 | 0.412
28 | FLEKFYKFGSR [NNMT_Y25_YF] | 0.428 | 0.883 | 0.789 | 0.341 | 0.389 | 0.551 | 0.592 | 0.413 | 0.746 | 0.6 | 0.679 | 0.723 | 0.365 | 0.548 | 0.571 | 0.433
29 | DTQNSYGCATS [TSC1_Y304] | 0.595 | 0.867 | 0.918 | 0.498 | 0.483 | 0.884 | 0.432 | 0.433 | 0.834 | 0.445 | 0.489 | 0.7 | 0.555 | 0.707 | 0.422 | 0.393
30 | KTDVHYRSLGG [DYSF_Y1858] | 0.472 | 0.74 | 0.649 | 0.371 | 0.335 | 0.426 | 0.329 | 0.364 | 0.515 | 0.371 | 0.48 | 0.468 | 0.359 | 0.511 | 0.334 | 0.377
31 | TPTYPYLLPKS [PLD2_Y580] | 0.62 | 0.768 | 0.899 | 0.441 | 0.286 | 0.564 | 0.29 | 0.452 | 0.599 | 0.349 | 0.639 | 0.527 | 0.581 | 0.505 | 0.63 | 0.564
32 | IKIMGYFIRTI [IDS_Y490_S491F] | 1.04 | 1.82 | 1.5 | 0.497 | 0.547 | 0.813 | 0.432 | 0.402 | 1.08 | 0.561 | 0.93 | 0.932 | 0.424 | 0.785 | 0.479 | 0.514
33 | HRERPYGGGGG [FUS_Y526_R521H] | 1.18 | 1.17 | 1.05 | 0.439 | 0.407 | 0.556 | 0.483 | 0.454 | 0.714 | 0.265 | 0.386 | 0.487 | 0.523 | 0.449 | 0.553 | 0.557
